Measurements reported in US10513545B2, “Fusion polypeptide in which anti-inflammatory polypeptide and ferritin monomer fragment are bound and pharmaceutical composition for preventing and treating inflammatory diseases, containing same as active ingredient” (KYUNGPOOK NATIONAL UNIVERSITY INDUSTRY-ACADEMIC COOPERATION …, priority 2015, dated 2019).
Like-named read-outs stand apart in the source and are kept apart here.

What was measured:
PAR-1 = PAR-1 cleavage assay in transfected HUVECs (ALP activity); format: cell-based; settings: FIG. 13
Protocol: HUVECs at 90% confluence in 24-well plates were transiently transfected with pRc/RSV containing ALP-PAR-1-TF cDNA in antibiotic-free Opti-MEM medium using Lipofectamine (Invitrogen) according to the manufacturer's instruction. On the following day, cells were washed and incubated in serum-free medium for 5 h. Cells were then incubated for an additional hour with thrombin, TRAP, TFG, or TFMG. Conditioned medium was collected and centrifuged to remove cellular debris. Supernatant was collected, and ALP (alkaline phosphatase) activity was measured using EnzoLyte™ p-nitrophenyl phosphate alkaline phosphatase assay kit (AnaSpec, San Jose, Calif.) according to the manufacturer's instructions.

soluble EPCR (sEPCR) [1] = biological target: T1, soluble EPCR (sEPCR) (Homo sapiens, UniProt Q9UNN8); test: solid-phase ELISA for binding affinity to soluble EPCR; settings: FIG. 9, read-out: Kd(app) for the interaction with sEPCR
T1 construct: 96-well flat microtiter plates were coated with soluble EPCR
T1 sequence (Q9UNN8 18-210 limits assumed): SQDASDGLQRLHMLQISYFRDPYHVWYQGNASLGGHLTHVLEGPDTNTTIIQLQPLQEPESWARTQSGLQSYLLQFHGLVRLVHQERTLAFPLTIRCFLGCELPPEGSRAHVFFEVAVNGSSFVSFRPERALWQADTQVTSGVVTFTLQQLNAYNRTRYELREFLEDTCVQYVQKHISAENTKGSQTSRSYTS
Protocol: 9. Enzyme-Linked Immunosorbent Assays (ELISA) for Evaluating EPCR (Endothelial Protein C Receptor) Binding Affinity
To evaluate the interaction of the wild-type PC, PC-Gla peptides, TFG, and TFMG with EPCR, 96-well flat microtiter plates were coated with soluble EPCR in 20 mM carbonate-bicarbonate buffer (pH 9.6) containing 0.02% sodium azide, overnight at 4° C. After the plates were washed three times in TBS buffer (0.1 M NaCl, 0.02 M Tris-HCl, pH 7.4) containing 0.05% Tween 20, the plates were incubated with wild-type PC, PC-Gla peptides, TFG, and TFMG (7-1000 nM) diluted in the buffer for 1 h. After the plates were rinsed again, they were incubated with a goat anti-protein C polyclonal antibody (1:1000) for 1 h. Then, the plates were washed and incubated with rabbit anti-goat IgG (KPL, MD, 1:1000) for 1 h. After washing, the plates were incubated with 2,2′-azino-di(3-ethylbenzthiazoline-6-sulfonate) (ABTS; KPL, Gaithersburg, Md.). Colorimetric analysis was performed by measuring absorbance values at 405 nm.

soluble EPCR (sEPCR) [2] = biological target: T1, soluble EPCR (sEPCR); settings: in an aqueous solution; read-out: previously reported binding affinity for PC to sEPCR; cited from earlier work

Row | Substance | PAR-1 cleavage activity (ability to activate PAR-1) (PAR-1) | Kd (soluble EPCR (sEPCR) [1]) | Kd (soluble EPCR (sEPCR) [2])
1 | TRAP peptides: thrombin receptor agonist peptide TFLLRN (SEQ ID NO: 3), activates PAR-1 (Thrombin receptor agonist peptide (TRAP)) [reference compound] | strong similarities |  | 
2 | wild type PC: wild-type Protein C, comparator in the EPCR binding ELISA [reference compound] |  | ~31.3 nM | 29 nM
